Laboratory results as given in article PMC8854672, “Tracing transport of protein aggregates in microgravity versus unit gravity crystallization” (NPJ Microgravity, 2022).
Several values for one entry are separate records, joined by “and”; a condition that tells them apart may be missing. Identical values can stand only once.

Molecular target: the molecule itself
Experiment: SEC; preparative HiLoad 26/600 Superdex 200 column after glutathione affinity chromatography; tetramer V_elution about 170 mL

B1: Plasmodium falciparum glutathione-S-transferase (enzyme, UniProt Q8ILQ7 1-211, looked up)
chain: MGDNIVLYYFDARGKAELIRLIFAYLGIEYTDKRFGVNGDAFVEFKNFKKEKDTPFEQVPILQIGDLILAQSQAIVRYLSKKYNICGESELNEFYADMIFCGVQDIHYKFNNTNLFKQNETTFLNEDLPKWSGYFEKLLKKNHTNNNNDKYYFVGNNLTYADLAVFNLYDDIETKYPSSLKNFPLLKAHNEFISNLPNIKNYITNRKESVY
notes: glutathione S-transferase of Plasmodium falciparum; recombinant; printed M.W. of the dimer ~56 kDa; Found as dimer and as tetramer; The dimer for crystallization was eluted with and stabilised by 10 mM S-(p-bromobenzyl)-GSH; The tetramer was labelled with Alexa Fluor 488 only after SEC and DLS; also called PfGST
stoichiometry N: 2 and 4
